We go through one substance from patent US20210063414A1, “METHODS FOR PREVENTING AND/OR TREATING BONE LOSS CONDITIONS BY MODULATING IRISIN” (Dana-Farber Cancer Institute, Inc., priority 2018, published 2021).

Holding throughout (assay): Crosslinking/co-immunoprecipitation/mass spectrometry (TMT quantitative proteomics) to identify irisin receptors
Assay type in all cases: binding

Test [1] has as its target T1, MLO-Y4 cell surface proteins (Mus musculus, UniProt P63038).
T1 construct: endogenous in cells; host or cells: MLO-Y4
The note with it: co-precipitated protein Hspd1 (CH60_MOUSE). The gist of the method: (§1)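 Mouse MLO-Y4 cells were switched to serum-free FreeStyle medium for 4 h, chilled, then exposed to 10 nM His-tagged irisin (or adipsin as control) for 20 min. Cells were crosslinked with 1.5 mM DTSSP (30 min, ice), and bound proteins were pulled down on Ni-NTA and eluted with 250 mM imidazole. Eluates were separated by SDS-PAGE, trypsin-digested in gel, TMT 6-plex labelled and quantified by MS3-based LC-MS/MS on an Orbitrap Fusion Lumos.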

The target in test [2] is T2, MLO-Y4 cell surface proteins (Mus musculus, UniProt Q8JZN5).
T2 construct: endogenous in cells; host or cells: MLO-Y4
T2 sequence (Q8JZN5 42-625): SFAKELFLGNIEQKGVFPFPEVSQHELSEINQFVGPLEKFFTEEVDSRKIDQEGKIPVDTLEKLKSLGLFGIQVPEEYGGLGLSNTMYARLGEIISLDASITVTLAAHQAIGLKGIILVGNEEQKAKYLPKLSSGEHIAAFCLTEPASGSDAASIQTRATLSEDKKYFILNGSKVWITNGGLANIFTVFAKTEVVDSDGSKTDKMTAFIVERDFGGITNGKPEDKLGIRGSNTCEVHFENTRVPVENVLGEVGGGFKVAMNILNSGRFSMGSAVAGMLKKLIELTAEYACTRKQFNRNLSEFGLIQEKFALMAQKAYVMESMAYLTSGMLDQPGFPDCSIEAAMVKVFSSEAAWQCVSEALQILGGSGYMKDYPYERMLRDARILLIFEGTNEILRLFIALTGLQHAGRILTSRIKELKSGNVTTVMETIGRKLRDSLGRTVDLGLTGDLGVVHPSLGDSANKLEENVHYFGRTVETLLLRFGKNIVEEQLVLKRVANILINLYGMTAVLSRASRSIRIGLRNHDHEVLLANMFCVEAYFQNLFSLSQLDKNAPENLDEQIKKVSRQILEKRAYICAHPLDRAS
The settings on record: co-precipitated protein Acad9 (ACAD9_MOUSE). The procedure, abridged: as §1

In test [3] the target is T3, MLO-Y4 cell surface proteins (Mus musculus, UniProt Q9CY64).
T3 construct: endogenous in cells; host or cells: MLO-Y4
T3 sequence (Q9CY64 3-295): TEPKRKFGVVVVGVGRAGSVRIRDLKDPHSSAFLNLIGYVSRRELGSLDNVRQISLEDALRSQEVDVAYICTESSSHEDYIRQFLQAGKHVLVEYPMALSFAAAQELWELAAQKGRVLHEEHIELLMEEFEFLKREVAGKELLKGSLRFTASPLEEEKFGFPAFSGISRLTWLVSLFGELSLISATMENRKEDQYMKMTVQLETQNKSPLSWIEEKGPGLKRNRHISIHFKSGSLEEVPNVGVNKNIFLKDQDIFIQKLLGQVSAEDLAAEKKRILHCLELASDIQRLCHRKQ
The note with it: co-precipitated protein Blvra (BIEA_MOUSE). The procedure, abridged: as §1

Test [4] addresses T4, MLO-Y4 cell surface proteins (Mus musculus, UniProt P09671).
T4 construct: endogenous in cells; host or cells: MLO-Y4
T4 sequence (P09671 25-222): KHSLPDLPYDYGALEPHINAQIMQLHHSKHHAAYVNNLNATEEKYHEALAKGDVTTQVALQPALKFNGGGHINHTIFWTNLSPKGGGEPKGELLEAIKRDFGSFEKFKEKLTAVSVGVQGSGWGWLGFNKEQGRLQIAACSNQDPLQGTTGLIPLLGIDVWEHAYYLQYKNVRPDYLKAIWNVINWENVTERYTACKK
The settings on record: co-precipitated protein Sod2 (SODM_MOUSE). The gist of the method:
as §1

T1 sequence (P63038 27-573): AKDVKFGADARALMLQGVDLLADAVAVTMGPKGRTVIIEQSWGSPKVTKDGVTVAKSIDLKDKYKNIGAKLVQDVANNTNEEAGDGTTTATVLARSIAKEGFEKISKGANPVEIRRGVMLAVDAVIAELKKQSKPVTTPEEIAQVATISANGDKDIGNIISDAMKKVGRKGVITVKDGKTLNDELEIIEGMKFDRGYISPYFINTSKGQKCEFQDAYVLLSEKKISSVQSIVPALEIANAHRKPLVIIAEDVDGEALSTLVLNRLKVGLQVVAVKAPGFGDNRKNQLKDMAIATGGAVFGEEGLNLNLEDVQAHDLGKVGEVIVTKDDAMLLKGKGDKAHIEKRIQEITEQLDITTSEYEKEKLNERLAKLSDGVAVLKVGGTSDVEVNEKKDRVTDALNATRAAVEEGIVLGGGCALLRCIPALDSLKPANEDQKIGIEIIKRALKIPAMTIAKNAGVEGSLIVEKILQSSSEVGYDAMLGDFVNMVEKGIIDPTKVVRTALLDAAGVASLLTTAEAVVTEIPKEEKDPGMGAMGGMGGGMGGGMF

Consider adipsin, for which the TMT signal-to-noise ratio is given as 4263.9 in test [1], 127.125 in test [2], 302.865 in test [3] and 1031.93 in test [4].
